Reference: patent CN114028562A (JIANGSU QYUNS BIOMEDICAL CO LTD, dated 2022)

Experiments:
[1] = target: T1, 人胸腺基质淋巴细胞生成素(Human Thymic Stromal Lymphopoietin, TSLP) (human, UniProt Q969D9 29-159); test: SPR, Biacore T200, 25°C, antibody captured on Protein A chip, TSLP as analyte, 1:1 model, mean of three runs
T1 construct: also called 人TSLP; hTSLP

食蟹猴TSLP = 食蟹猴TSLP (cynomolgus monkey, UniProt A0A7N9CAT7 29-159); test: cell-based or functional assay
[2] = target: T1, 人胸腺基质淋巴细胞生成素(Human Thymic Stromal …); test: cell-based or functional assay

Sequence of 食蟹猴TSLP (A0A7N9CAT7 entry or part of it): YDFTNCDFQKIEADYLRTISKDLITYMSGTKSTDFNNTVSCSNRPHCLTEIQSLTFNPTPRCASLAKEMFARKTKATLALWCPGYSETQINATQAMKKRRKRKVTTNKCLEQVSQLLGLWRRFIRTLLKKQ

| Kd [1] [nM] | koff [1] [s⁻¹] | kon [1] [M⁻¹ s⁻¹] | IC50, inhibition of cynomolgus TSLP-induced STAT5 phosphorylation in SW756-STAT5-Luciferase reporter cells (食蟹猴TSLP) [ng/mL] | IC50, inhibition of human TSLP-induced STAT5 phosphorylation in SW756-STAT5-Luciferase reporter cells [2] [ng/mL] | IC50, inhibition of human TSLP-induced TARC(CCL17) release from human PBMC [2] [ng/mL] | IC50, inhibition of human TSLP-induced TARC(CCL17) release from human whole blood [2] [ng/mL] | Binder |
| --- | --- | --- | --- | --- | --- | --- | --- |
| 0.0175 | 2.99e-05 | 1.74e+06 | 0.889 | 0.837 | 77.1 | 0.839 | QX008N(HZD8G2-57) (antibody, V domains shown) VH: EVQLVESGGGLVQPGGSLRLSCAASGFSLSSYYMSWVRQAPGKGLEWVGFISYGGSAYHATWAQGRFTISKDNSKNTLYLQMNSLRAEDTAVYYCAREFRSMTYGAEWGIWGQGTLVTVSS VL: AYQMTQSPSSVSASVGDRVTITCQASESIYDTLAWYQQKPGKAPKLLIYSASSLASGVPSRFSGSGSGTDFTLTISSLQPEDFATYYCQQGYTMPDVDKNPFGGGTKVEIKR |
| – | – | – | 1.88 | – | – | – | Tezepelumab (antibody, V domains shown) VH: QMQLVESGGGVVQPGRSLRLSCAASGFTFRTYGMHWVRQAPGKGLEWVAVIWYDGSNKHYADSVKGRFTITRDNSKNTLNLQMNSLRAEDTAVYYCARAPQWELVHEAFDIWGQGTMVTVSS VL: SYVLTQPPSVSVAPGQTARITCGGNNLGSKSVHWYQQKPGQAPVLVVYDDSDRPSWIPERFSGSNSGNTATLTISRGEAGDEADYYCQVWDSSSDHVVFGGGTKLTVLG |
